Reference: the RNAGym collection of RNA variant scans (doi:10.1073/pnas.2313332121)
Fewer inactive variants are shown than the library holds.

B1: TPR 5TU (parent)
chain: GGAUCUUCUCGAUCUAACAAAAAAGACAAAUCUGCCACAAAGCUUGAGAGCAUCUUCGGAUGCAGAGGCGGCAGCCUUCGGUGGCGCGAUAGCGCCAACGUUCUCAACUAUGACACGCAAAACGCGUGCUCCGUUGAAUGGAGUUUAUCAUG

Variants of: B1
Experiment: polymerase ribozyme fitness, log enrichment relative to wild type (log ratio); higher = more active; in vitro selection for triplet polymerase activity
Method in brief: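 Fitness is a logarithmic measure of how a genotype enriched relative to the wild type, with replicate averages weighted by inverse variance. The logarithm uses base 2, and enrichment came from Illumina sequencing of input and output libraries. Those libraries were PCR-built, transcribed mutants of each subunit of a heterodimeric triplet polymerase ribozyme, passed through one triplicate in vitro selection round that included frozen incubation at −7 °C, gel excision of extended constructs and streptavidin-bead capture. Genotypes were kept only if they had ≥10 input reads and ≥1 read per output.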

| Variant | polymerase ribozyme fitness (log ratio) |
| --- | --- |
| GGAUCUUCUCGAUCUAACAAAAAAGACAAAUCUGCCACAAAGCUUGAGAGCAUCUUCGGAUGGAGAGCCGGCAGCCUUCGGUGGCGCGAUAGCGCCAACGUUCUCAACUAUGACACGCAAAACGCGUGCUCCGUUGAAUGGAGUUUAUCAUG | ≤ -4.2 |
| GGAUCUUCUCGAUCUAACAAAAAAGACAAAUCUGCCACAAAGCUUGAGAGCAUCUUCGGAUGGAGACGCGGCAGCCUUCGGUGGCGCGAUAGCGCCAACGUUCUCAACUAUGACACGCAAAACGCGUGCUCCGUGGAAUGGAGUUUAUCAUG | ≤ -4.2 |
| GGAUCUUCUCGAUCUAACAAAAAAGACAAAUCUGCCACAAAGCUUGAGAGCAUCUUCGGAUGGAGAGGCGGCAGCCUUCGGUGGCGCGAAAGCGCCAAGGUUCUCAACUAUGACACGCAAAACGCGUGCUCCGUUGAAUGGAGUUUAACAUG | ≤ -4.2 |
| GGAUCUUCUCGAUCUAACAAAAAAGACAAAUCUGCCACAAAGCUUGAGAGCAUCUUCGGAUGGAGGGGCGACAUCCUUCGGUGGCGCGAUAGCGCCAACGUUCUCAACUAUGACACGCAAAACGCGUGCUCCGUGGAAUGGACUUUAUCAUG | ≤ -4.2 |
| GGAUCUUCUCGAUCUAACAAAAAAGACAAAUCUGCCACAAAGCUUGAGAGCAUCUUCGGAUGGAGAGGCGGCAGCCUUCGGUGGCGCGAUAGCGCCAACGUUCUCAACUAUGACACGCAAAACGCGUGCUCCUUUGAAUGGAGUUUAUCAUG | -4.14 |
| GGAUCUUCUCGAUCUAACAAAAAAGACAAAUCUGCCACAAAGCUUGAGAGCAUCUUCGGAUGGAGAGGCGGCAGCCUUCGGUGGCGCGAUAGAGCCAGCGUUCUCAACUAUGACAUGCAAAACGCGUGCUCCGUUGAAUCGAGUUUAUCAUG | ≤ -4.2 |
| GGAUCUUCUCGAUCUAACAAAAAAGACAAAUCUGCCACAAAGCUUGAGAGCAUCUUCGGAUGGAAAGGCGACAGCCUUCGGUGGCGAGAUAGCGCCAACGUUCUCAACUAUGACACGUAAAACGCGUGCUCCGUUGAAUGGAGUCUAUCAUG | ≤ -4.2 |
| GGAUCUUCUCGAUCUAACAAAAAAGACAAAUCUGCCACAAAGCUUGAGAGCAUCUUCGGAUGGACAGGCGGCAGCCUUCGGUGGCGCGAUAGGGCCAACGUUCUCAACUAUGACACGCAAAACGCGUGCUCCGUUGCAUGGUGUUUAUCAUG | ≤ -4.2 |
| GGAUCUUCUCGAUCUAACAAAAAAGACAAAUCUGCCACAAAGCUUGAGAGCAUCUUCGGAUGGAGAGGCGGCAGCCUUCGGUGGCGCGAUAGCGCCAACGUGCUUAACUAUGACACGCAAAACGCGUGCUCCGUUGAAUGGAGUUUAUCAUG | ≤ -4.2 |
| GGAUCUUCUCGAUCUAACAAAAAAGACAAAUCUGCCACAAAGCUUGAGAGCAUCUUCGGAUGGAGAGGCGGCAGCCUUCGGUGGCGCGAUGGCGCCAACGUUCUCAACUAUGACACGCAAAACGCGUGCUCCGUUGAAUGGAGUUUAUCAUG | -2.57 |
| GGAUCUUCUCGAUCUAACAAAAAAGACAAAUCUGCCACAAAGCUUGAGAGCAUCUUCGGAUGGAGAGGGGGCAGCCUUCGGUGGCGCGAUAGCGCCAACGUUCUCAACUAUGACACGCAAAACGCGUGCUCCGUUGAAUGGAGUUUAUCAUG | -1.75 |
| GGAUCUUCUCGAUCUAACAAAAAAGACAAAUCUGCCACAAAGCUUGAGAGCAUCUUCGGAUGGAGAGGCGGCAGCUUUCGGUGGCGCGAUAGCGCCAACGUUCUCAACUAUGACACGCAAAACGCGUGCUCCGUUGAAUGGAGUUUAUCAUG | 0.0444 |
| GGAUCUUCUCGAUCUAACAAAAAAGACAAAUCUGCCACAAAGCUUGAGAGCAUCUUCGGAUGGAGAGGCGGCAGCCUAUGGUGGUGCGAUAGCGCCAGCGUUCUCUACUAUGACACGCAAAACGCGUGCUCCGCUGAAUGGGGUUAAUCAUG | ≤ -4.2 |
| GGAUCUUCUCGAUCUAACAAAAAAGACAAAUCUGCCACAAAGCUUGAGAGCAUCUUCGGAUGGAGAGGCGGCAGCCUUCGGUGGCGCGAUAUCGCCAACGUCCUCAACUAUGACACGCAGAACGCGUGCUCCGUUGAAUGGAGUUUAUCAUG | -1.8 |
| GGAUCUUCUCGAUCUAACAAAAAAGACAAAUCUGCCACAAAGCUUGAGAGCAUCUUCGGAUGGAGAGGCGGCAGCCUUCGGUGGCGCGAUAGCGACAACGUUCUCAACUGUGACACGCAAAUCGCGUGCUCCGUUGAAUGGAGUUUAUCAUG | -3.22 |
| GGAUCUUCUCGAUCUAACAAAAAAGACAAAUCUGCCACAAAGCUUGAGAGCAUCUUCGGAUGGAGAGGCGGCAGCCUUCGGUAGCGCGAUAGCGCCACCGUUCACAACUAUGACACGCAAAACGCGUGCUCCGUUGAAUGGAGUUUAUCAUG | -0.841 |
| GGAUCUUCUCGAUCUAACAAAAAAGACAAAUCUGCCACAAAGCUUGAGAGCAUCUUCGGAUGGAGAGGCGGCAGCCUUCGCAGGCGCGAUAGCGCCAACGUUCUCAACUAUGACACGCAAAACGCGUGCUCCGUUGAAUGGAGUUUAUCAUG | -0.391 |
| GGAUCUUCUCGAUCUAACAAAAAAGACAAAUCUGCCACAAAGCUUGAGAGCAUCUUCGGAUGGAGAGGCGGCGGCCUUCGGUGGCGCGAUAGCGCCAACGUUCUCAACUAUGACACGCAAAACGCGUGCUCCGUUGAAUGGAGUUUAUCAUG | -0.51 |
| GGAUCUUCUCGAUCUAACAAAAAAGACAAAUCUGCCACAAAGCUUGAGAGCAUCUUCGGAUGGAGAGGCGGCAGCCUUCGGUGGCGCGAUAGCGCCAACGUUCUCAACUUUGACACGCAAAACGCGUGCUCCGUUUAAUGGAGUUUAACAUG | ≤ -4.2 |
